These results are taken from patent US20240400652A1.

The target of assay [1] is Deglycosylated SARS-CoV-2 RBD (SARS-CoV-2) (UniProt P0DTC2).
Assay [2] deals with SARS-CoV-2 Spike protein on pseudotyped virus (SARS-CoV-2) (UniProt P0DTC2). In words: cell-based or functional assay.
The target is the same in assay [3]. Put plainly: cell-based or functional assay. This is another data set of the same source.

Read-outs that look alike come from different tables or passages of the source.

What is called Kd is a measure of binding affinity in units of concentration. As usually defined, the koff is the first-order rate constant of dissociation. A lower koff goes with a long-lived complex. As a reminder, the kon is a measure of how fast the partners come together. Low values mean slow association, high ones fast association. In assay [1], “S306 G56A (as printed in Table 5) (antibody)” yielded a Kd of 0.7 nM, a koff of 0.00024 s⁻¹ and a kon of 340000 M⁻¹ s⁻¹.
Turning to S309 LS (antibody), in assay [2], the IC50, neutralization of SARS-CoV-2pp, DBT-ACE2 cells stood at 3.82 nM. Further, in assay [3], the IC50, neutralization of SARS-CoV-2pp, DBT-ACE2 cells was found to be 3.9 nM; the maximum neutralization, VSV pseudotype, 293T ACE2 cells worked out at 34%; the maximum neutralization, VSV pseudotype, A549-ACE2-TMPRSS2 clone 5 cells was 65%; the maximum neutralization, VSV pseudotype, A549-ACE2-TMPRSS2 clone 10 cells stood at 42%. In assay [3], the maximum neutralization, VSV pseudotype, Huh7 cells came to 78%; the maximum neutralization, VSV pseudotype, MRC5-ACE2-TMPRSS2 cells came to 45%; the maximum neutralization, VSV pseudotype, Vero E6-TMPRSS2 cells came out at 96%; the maximum neutralization, VSV pseudotype, Vero E6 cells is over 99%.
Substance sotrovimab (antibody) had an EC50, neutralization of pseudotyped virus in assay [3] of 24.1 ng/mL.
